Experimental data taken from IntAct's records for PubMed 29039417.

B1: BBSome complex member BBS4 (Homo sapiens), Q96RK4 (parent)
chain: MAEERVATRTQFPVSTESQKPRQKKAPEFPILEKQNWLIHLHYIRKDYEACKAVIKEQLQETQGLCEYAIYVQALIFRLEGNIQESLELFQTCAVLSPQSADNLKQVARSLFLLGKHKAAIEVYNEAAKLNQKDWEISHNLGVCYIYLKQFNKAQDQLHNALNLNRHDLTYIMLGKIHLLEGDLDKAIEVYKKAVEFSPENTELLTTLGLLYLQLGIYQKAFEHLGNALTYDPTNYKAILAAGSMMQTHGDFDVALTKYRVVACAVPESPPLWNNIGMCFFGKKKYVAAISCLKRANYLAPFDWKILYNLGLVHLTMQQYASAFHFLSAAINFQPKMGELYMLLAVALTNLEDIENAKRAYAEAVHLDKCNPLVNLNYAVLLYNQGEKKNALAQYQEMEKKVSLLKDNSSLEFDSEMVEMAQKLGAALQVGEALVWTKPVKDPKSKHQTTSTSKPASFQQPLGSNQALGQAMSSAAAYRTLPSGAGGTSQFTKPPSLPLEPEPAVESSPTETSEQIREK
partner: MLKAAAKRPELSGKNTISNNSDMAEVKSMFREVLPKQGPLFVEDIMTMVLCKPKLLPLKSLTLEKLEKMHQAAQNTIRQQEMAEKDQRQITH

Variants of: B1
Details: with bbip1_human BBIP1, A8MTZ0
With V402K the “effect of a mutation on the interaction” value was “with no effect”.
V402A was tested, and the “effect of a mutation on the interaction” value was “with no effect”.
For H447A, the “effect of a mutation on the interaction” value was “with no effect”.
In the case of N297A, the “effect of a mutation on the interaction” value is reported as “with no effect”.
With K284A the “effect of a mutation on the interaction” value was “with no effect”.
With H325K the “effect of a mutation on the interaction” value was “with no effect”.
For S474K, the “effect of a mutation on the interaction” value was “with no effect”.
In the case of A360K, the “effect of a mutation on the interaction” value is reported as “with no effect”.
In the case of Q334D, the “effect of a mutation on the interaction” value is reported as “disrupting interaction strength”.
P372L was tested, and the “effect of a mutation on the interaction” value was “disrupting interaction strength”.
P372A was tested, and the “effect of a mutation on the interaction” value was “with no effect”.
E419A was tested, and the “effect of a mutation on the interaction” value was “with no effect”.
E419K was tested, and the “effect of a mutation on the interaction” value was “with no effect”.
In the case of P455K, the “effect of a mutation on the interaction” value is reported as “with no effect”.
For E500K, the “effect of a mutation on the interaction” value was “with no effect”.
For P498K, the “effect of a mutation on the interaction” value was “with no effect”.
With I276A the “effect of a mutation on the interaction” value was “with no effect”.
In the case of N332F, the “effect of a mutation on the interaction” value is reported as “disrupting interaction strength”.
In the case of P482A, the “effect of a mutation on the interaction” value is reported as “with no effect”.
With A362E the “effect of a mutation on the interaction” value was “with no effect”.
In the case of L293A, the “effect of a mutation on the interaction” value is reported as “with no effect”.
In the case of E511K, the “effect of a mutation on the interaction” value is reported as “with no effect”.
In the case of E518A, the “effect of a mutation on the interaction” value is reported as “with no effect”.
In the case of A504E, the “effect of a mutation on the interaction” value is reported as “with no effect”.
With A471K the “effect of a mutation on the interaction” value was “with no effect”.
For I331K, the “effect of a mutation on the interaction” value was “with no effect”.
I331A was tested, and the “effect of a mutation on the interaction” value was “with no effect”.
M420E was tested, and the “effect of a mutation on the interaction” value was “with no effect”.
K294A was tested, and the “effect of a mutation on the interaction” value was “with no effect”.
With A433E the “effect of a mutation on the interaction” value was “with no effect”.
With S457A the “effect of a mutation on the interaction” value was “with no effect”.
In the case of S457E, the “effect of a mutation on the interaction” value is reported as “with no effect”.
With K388A the “effect of a mutation on the interaction” value was “with no effect”.
For P270E, the “effect of a mutation on the interaction” value was “with no effect”.
With A485K the “effect of a mutation on the interaction” value was “with no effect”.
In the case of A321E, the “effect of a mutation on the interaction” value is reported as “with no effect”.
In the case of S410E, the “effect of a mutation on the interaction” value is reported as “with no effect”.
L428A was tested, and the “effect of a mutation on the interaction” value was “with no effect”.
L428E was tested, and the “effect of a mutation on the interaction” value was “with no effect”.
In the case of A296V, the “effect of a mutation on the interaction” value is reported as “disrupting interaction strength”.
With L343T the “effect of a mutation on the interaction” value was “disrupting interaction strength”.
In the case of Q448A, the “effect of a mutation on the interaction” value is reported as “with no effect”.
For Q448E, the “effect of a mutation on the interaction” value was “with no effect”.
With Q448K the “effect of a mutation on the interaction” value was “with no effect”.
With E506A the “effect of a mutation on the interaction” value was “with no effect”.
In the case of M342W, the “effect of a mutation on the interaction” value is reported as “disrupting interaction strength”.
With M342R the “effect of a mutation on the interaction” value was “disrupting interaction strength”.
M342K was tested, and the “effect of a mutation on the interaction” value was “disrupting interaction strength”.
V440A was tested, and the “effect of a mutation on the interaction” value was “with no effect”.
For V440E, the “effect of a mutation on the interaction” value was “with no effect”.
A391T was tested, and the “effect of a mutation on the interaction” value was “disrupting interaction strength”.
For N309A, the “effect of a mutation on the interaction” value was “with no effect”.
For V430K, the “effect of a mutation on the interaction” value was “with no effect”.
In the case of V365K, the “effect of a mutation on the interaction” value is reported as “with no effect”.
For E514K, the “effect of a mutation on the interaction” value was “with no effect”.
In the case of P494A, the “effect of a mutation on the interaction” value is reported as “with no effect”.
With Y395H the “effect of a mutation on the interaction” value was “disrupting interaction strength”.
For L497K, the “effect of a mutation on the interaction” value was “with no effect”.
In the case of Y383A, the “effect of a mutation on the interaction” value is reported as “with no effect”.
For Y383K, the “effect of a mutation on the interaction” value was “with no effect”.
In the case of L382K, the “effect of a mutation on the interaction” value is reported as “with no effect”.
For Y341E, the “effect of a mutation on the interaction” value was “with no effect”.
For H366K, the “effect of a mutation on the interaction” value was “with no effect”.
In the case of D303K, the “effect of a mutation on the interaction” value is reported as “with no effect”.
For D303A, the “effect of a mutation on the interaction” value was “with no effect”.
With I290K the “effect of a mutation on the interaction” value was “with no effect”.
In the case of T316K, the “effect of a mutation on the interaction” value is reported as “with no effect”.
With V418K the “effect of a mutation on the interaction” value was “with no effect”.
With V418A the “effect of a mutation on the interaction” value was “with no effect”.
S291A was tested, and the “effect of a mutation on the interaction” value was “with no effect”.
For D368E, the “effect of a mutation on the interaction” value was “with no effect”.
E412A was tested, and the “effect of a mutation on the interaction” value was “with no effect”.
For Q490A, the “effect of a mutation on the interaction” value was “with no effect”.
Q490E was tested, and the “effect of a mutation on the interaction” value was “with no effect”.
For A426E, the “effect of a mutation on the interaction” value was “with no effect”.
In the case of K369A, the “effect of a mutation on the interaction” value is reported as “with no effect”.
For A323K, the “effect of a mutation on the interaction” value was “with no effect”.
A323E was tested, and the “effect of a mutation on the interaction” value was “with no effect”.
In the case of S322K, the “effect of a mutation on the interaction” value is reported as “with no effect”.
Y320E was tested, and the “effect of a mutation on the interaction” value was “with no effect”.
For Y320C, the “effect of a mutation on the interaction” value was “disrupting interaction strength”.
Y320A was tested, and the “effect of a mutation on the interaction” value was “with no effect”.
With L499K the “effect of a mutation on the interaction” value was “with no effect”.
In the case of L499E, the “effect of a mutation on the interaction” value is reported as “with no effect”.
In the case of V435A, the “effect of a mutation on the interaction” value is reported as “with no effect”.
For E502K, the “effect of a mutation on the interaction” value was “with no effect”.
K358A was tested, and the “effect of a mutation on the interaction” value was “with no effect”.
T450K was tested, and the “effect of a mutation on the interaction” value was “with no effect”.
